In publication doi:10.1101/2024.06.21.600001:

Molecular target: EBOV GP ectodomain, mucin-like domain deleted (EBOV GP[change] ectodomain), Mayinga, residues 33-651, double Strep-tag (Zaire ebolavirus (EBOV), Mayinga) (UniProt Q05320)
Assay: cryo-EM structure

**Q.** How did the stoichiometry N turn out when “EBOV GP ectodomain, mucin-like domain deleted (EBOV GP[change] ectodomain), Mayinga, residues 33-651, double Strep-tag (from UniProt Q05320 33-651) (domain or fragment)” was run?
**A.** Its stoichiometry N is 3.
